# Measured values taken from patent US20240117018A1.
# Experiments:
# Assay in all cases: cell-based or functional assay
# [1] = biological target: HIV-1 Env of pseudovirus 0815.v3.c3 (HIV-1)
# [2] = biological target: HIV-1 Env of pseudovirus X1193_c1 (HIV-1)
# [3] = biological target: HIV-1 Env of pseudovirus R3265.c06 (HIV-1)
# [4] = biological target: HIV-1 Env of pseudovirus 6545.v4.c1 (HIV-1)
# [5] = biological target: HIV-1 Env of pseudovirus 6540.v4.c1 (HIV-1)
# [6] = biological target: HIV-1 Env of pseudovirus 928-28 (HIV-1)
# [7] = biological target: HIV-1 Env of pseudovirus 620345.c01 (HIV-1)
# [8] = biological target: HIV-1 Env of pseudovirus 235-47 (HIV-1)
# [9] = biological target: HIV-1 Env of pseudovirus P0402_c2_11 (HIV-1)
# [10] = biological target: HIV-1 Env of pseudovirus 6480.v4.c25 (HIV-1)
# [11] = biological target: HIV-1 Env of pseudovirus R1166.c01 (HIV-1)
# [12] = biological target: HIV-1 Env of pseudovirus X1632_S2_B10 (HIV-1)
# [13] = biological target: HIV-1 Env of pseudovirus A07412M1.vrc12 (HIV-1)
# [14] = biological target: HIV-1 Env of pseudovirus C1080.c03 (HIV-1)
# [15] = biological target: HIV-1 Env of pseudovirus X1254_c3 (HIV-1)
# [16] = biological target: HIV-1 Env of pseudovirus C3347.c11 (HIV-1)
# [17] = biological target: HIV-1 Env of pseudovirus T278-50 (HIV-1)
# [18] = biological target: HIV-1 Env of pseudovirus 263-8 (HIV-1)
# [19] = biological target: HIV-1 Env of pseudovirus 3817.v2.c59 (HIV-1)
# [20] = biological target: HIV-1 Env of pseudovirus BJOX015000.11.5 (HIV-1)
# [21] = biological target: HIV-1 Env of pseudovirus 3016.v5.c45 (HIV-1)
# [22] = biological target: HIV-1 Env of pseudovirus 9004SS_A3_4 (HIV-1)
# [23] = biological target: HIV-1 Env of pseudovirus BJOX025000.01.1 (HIV-1)
# [24] = biological target: HIV-1 Env of pseudovirus R2184.c04 (HIV-1)
# [25] = biological target: HIV-1 Env of pseudovirus 231965.c01 (HIV-1)
# [26] = biological target: HIV-1 Env of pseudovirus 6811.v7.c18 (HIV-1)
# [27] = biological target: HIV-1 Env of pseudovirus X2088_c9 (HIV-1)
# [28] = biological target: HIV-1 Env of pseudovirus 6041.v3.c23 (HIV-1)
# [29] = biological target: HIV-1 Env of pseudovirus 6952.v1.c20 (HIV-1)
# [30] = biological target: HIV-1 Env of pseudovirus 3103.v3.c10 (HIV-1)
# [31] = biological target: HIV-1 Env of pseudovirus X2131_C1_B5 (HIV-1)
# [32] = biological target: HIV-1 Env of pseudovirus T251-18 (HIV-1)
# [33] = biological target: HIV-1 Env of pseudovirus BJOX028000.10.3 (HIV-1)
# [34] = biological target: HIV-1 Env of pseudovirus 3301.v1.c24 (HIV-1)
# [35] = biological target: HIV-1 Env of pseudovirus T257-31 (HIV-1)
# [36] = biological target: HIV-1 Env of pseudovirus 231966.c02 (HIV-1)
substance,measurement,setting,value
N49P7.1 (antibody),"IC50 (neutralisation, TZM.bl cells)",[1],0.023 µg/mL
same,"IC80 (neutralisation, TZM.bl cells)",[1],0.064 µg/mL
same,MPI,[1],100
same,IC50,[2],0.035 µg/mL
same,IC80,[2],0.144 µg/mL
same,MPI,[2],100
same,IC50,[3],0.059 µg/mL
same,IC80,[3],0.328 µg/mL
same,MPI,[3],100
same,"IC50 (neutralisation, TZM.bl cells)",[4],1.15 µg/mL
same,"IC80 (neutralisation, TZM.bl cells)",[4],16 µg/mL
same,MPI,[4],92
same,"IC50 (neutralisation, TZM.bl cells)",[5],14.7 µg/mL
same,"IC80 (neutralisation, TZM.bl cells)",[5],> 50 µg/mL
same,MPI,[5],75
same,IC50,[6],0.23 µg/mL
same,IC80,[6],0.775 µg/mL
same,MPI,[6],100
same,IC50,[7],> 50 µg/mL
same,IC80,[7],> 50 µg/mL
same,MPI,[7],47
same,IC50,[8],0.078 µg/mL
same,IC80,[8],0.419 µg/mL
same,MPI,[8],97
same,IC50,[9],0.029 µg/mL
same,IC80,[9],0.115 µg/mL
same,MPI,[9],100
same,"IC50 (neutralisation, TZM.bl cells)",[10],0.056 µg/mL
same,"IC80 (neutralisation, TZM.bl cells)",[10],0.192 µg/mL
same,MPI,[10],100
same,IC50,[11],0.136 µg/mL
same,IC80,[11],0.461 µg/mL
same,MPI,[11],100
same,"IC50 (neutralisation, TZM.bl cells)",[12],17.9 µg/mL
same,"IC80 (neutralisation, TZM.bl cells)",[12],> 50 µg/mL
same,MPI,[12],65
same,"IC50 (neutralisation, TZM.bl cells)",[13],0.232 µg/mL
same,"IC80 (neutralisation, TZM.bl cells)",[13],1.07 µg/mL
same,MPI,[13],100
same,IC50,[14],0.144 µg/mL
same,IC80,[14],1.05 µg/mL
same,MPI,[14],100
same,IC50,[15],3.96 µg/mL
same,IC80,[15],18.2 µg/mL
same,MPI,[15],96
same,IC50,[16],0.048 µg/mL
same,IC80,[16],0.161 µg/mL
same,MPI,[16],100
same,IC50,[17],42.4 µg/mL
same,IC80,[17],> 50 µg/mL
same,MPI,[17],56
same,IC50,[18],0.104 µg/mL
same,IC80,[18],0.392 µg/mL
same,MPI,[18],100
same,"IC50 (neutralisation, TZM.bl cells)",[19],1.48 µg/mL
same,"IC80 (neutralisation, TZM.bl cells)",[19],8.36 µg/mL
same,MPI,[19],97
same,IC50,[20],0.111 µg/mL
same,IC80,[20],0.487 µg/mL
same,MPI,[20],100
same,"IC50 (neutralisation, TZM.bl cells)",[21],0.559 µg/mL
same,"IC80 (neutralisation, TZM.bl cells)",[21],2.54 µg/mL
same,MPI,[21],100
same,IC50,[22],0.221 µg/mL
same,IC80,[22],0.841 µg/mL
same,MPI,[22],100
same,IC50,[23],0.057 µg/mL
same,IC80,[23],0.378 µg/mL
same,MPI,[23],100
same,IC50,[24],0.018 µg/mL
same,IC80,[24],0.04 µg/mL
same,MPI,[24],100
same,"IC50 (neutralisation, TZM.bl cells)",[25],0.106 µg/mL
same,"IC80 (neutralisation, TZM.bl cells)",[25],0.364 µg/mL
same,MPI,[25],100
same,"IC50 (neutralisation, TZM.bl cells)",[26],0.321 µg/mL
same,"IC80 (neutralisation, TZM.bl cells)",[26],1.46 µg/mL
same,MPI,[26],100
same,IC50,[27],0.199 µg/mL
same,IC80,[27],0.726 µg/mL
same,MPI,[27],100
same,"IC50 (neutralisation, TZM.bl cells)",[28],0.078 µg/mL
same,"IC80 (neutralisation, TZM.bl cells)",[28],0.366 µg/mL
same,MPI,[28],100
same,"IC50 (neutralisation, TZM.bl cells)",[29],26.3 µg/mL
same,"IC80 (neutralisation, TZM.bl cells)",[29],> 50 µg/mL
same,MPI,[29],71
same,"IC50 (neutralisation, TZM.bl cells)",[30],0.229 µg/mL
same,"IC80 (neutralisation, TZM.bl cells)",[30],0.772 µg/mL
same,MPI,[30],100
same,"IC50 (neutralisation, TZM.bl cells)",[31],0.129 µg/mL
same,"IC80 (neutralisation, TZM.bl cells)",[31],0.431 µg/mL
same,MPI,[31],100
same,IC50,[32],0.229 µg/mL
same,IC80,[32],0.794 µg/mL
same,MPI,[32],100
same,IC50,[33],0.031 µg/mL
same,IC80,[33],0.29 µg/mL
same,MPI,[33],100
same,"IC50 (neutralisation, TZM.bl cells)",[34],0.041 µg/mL
same,"IC80 (neutralisation, TZM.bl cells)",[34],0.111 µg/mL
same,MPI,[34],100
same,IC50,[35],0.209 µg/mL
same,IC80,[35],1.04 µg/mL
same,MPI,[35],100
same,"IC50 (neutralisation, TZM.bl cells)",[36],0.203 µg/mL
same,"IC80 (neutralisation, TZM.bl cells)",[36],0.705 µg/mL
same,MPI,[36],100
